Results reported in the supplement of paper PMC12764529.
± gives the half width of the 95% confidence interval.

Assay: folding stability dG unfold from trypsin proteolysis; higher = more stable
Method in brief: (§1)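 Digests were run with trypsin and chymotrypsin at 11 concentrations in threefold dilutions, plus a no-protease condition, on designed mini-proteins in a PA-tagged cDNA display construct. The mini-proteins were under 80 residues, had no cysteine, and were kept only when AlphaFold2 dimer inter-PAE was above 15. After sequencing, Bayesian fitting of the counts gave K50, from which unfolding free energy was derived against a sequence-predicted unfolded-state K50 and a shared folded-state K50, per protease or combined.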

Q: Which “folding stability dG unfold” value does the source give for “SAGGSAGGKLVLKIKIYNKKTKKVYEFEIEADSLEELKEALKKLGLPKDVKIVSVELRPLDEEPSAGGSAGG [r6_23_TrROS_Hall]” here?
A: The value was 3.65 ± 0.1 kcal/mol.

Q: Which “folding stability dG unfold” value does the source give for “SAGGSAGGSAGGSLTFDGPDTKIEVYELDDDLLPVTIYTDSAPRTILVPPKEFLKLLASSAGGSAGGSAGGS [r4_346_TrMRF]” here?
A: Its value is 0.0915 ± 0.071 kcal/mol.

Q: Which “folding stability dG unfold” value does the source give for “SAGGSAGGKIKVEYNPENNMYRVTIKLPGGKIKIYIPPGQTEEQGEKNVKHMAKELLKKNGIKISAGGSAGG [r6_679_TrROS]” here?
A: Its value is -0.0228 ± 0.46 kcal/mol.

Q: For “SVPPNAPPGMKPKRVEIFIFIPPELYDKDGKISPEQLKKAKGMAKMIKLRLREQYPGYGIDDVKVHIMPGSA [r9_943_TrROS]”, which “folding stability dG unfold” value is on record?
A: Its value is 2.76 ± 0.052 kcal/mol.

Q: With “SFKLEKTITLPDYVLKIEVTFKPKPDKTVIAPIKVTIYDPVKKKPYTKELTKPFPPEDPLKFVEEALKEIFS [r1_171_TrMRF]” as the sequence, how does the “folding stability dG unfold” value read?
A: Its value is 0.425 ± 0.1 kcal/mol.

Q: For “SAGKTATFTFTLPLPENDLILRVTVRVEEVEDIGEKKVYRVNVEIDLIDKDGVPHRFSFSFLVPAEELFSAG [r14_916_TrMRF]”, which “folding stability dG unfold” value is on record?
A: The value was 3.39 ± 0.15 kcal/mol.

Q: For “SAGGSAGGSAPSKKVKFKVLAKNTKTGKYKEIDITAEVPVSNGKVVSIEELLKKFPDFELKPSAGGSAGGSA [r18_267_TrMRF]”, which “folding stability dG unfold” value is on record?
A: Its value is 0.342 ± 0.11 kcal/mol.

Q: With “SAGGMTIFLPLENKEEVIEKLKKEGYKPVEVKEEGDVVTIKVEKKKDEKKEEITIVFYPPSKPEEPVSAGGS [r8_307_JUSTAS]” as the sequence, how does the “folding stability dG unfold” value read?
A: The value was 2.77 ± 0.14 kcal/mol.

Q: For “SAGGSAMITVDPGEKTVTVEIDLPVYKSYTYPGGETKAYPLELPEEEAKKVADEIAEAFKKKLEGESAGGSA [r15_365_JUSTAS]”, which “folding stability dG unfold” value is on record?
A: The value was -0.499 ± 0.25 kcal/mol.

Q: For “SAGGSAGGVPEVVEEVAREVDPRIVTRVEVRVFEPPPEYRLVVVVVELRLPTERRFVPRVVRLRSAGGSAGG [r6_630_TrMRF]”, which “folding stability dG unfold” value is on record?
A: Its value is 2.85 ± 0.19 kcal/mol.

Q: Which “folding stability dG unfold” value does the source give for “SAGGSAGGSAGGMEVYRNPETGTLVFLFELEDGSYVAVTINPDGSVEVRVFDKDGRWVPSAGGSAGGSAGGS [r10_299_TrROS_Hall]” here?
A: Its value is 2.61 ± 0.064 kcal/mol.

Assay: folding stability dG unfold from chymotrypsin proteolysis; higher = more stable
Method in brief: as §1

Q: Which “folding stability dG unfold” value does the source give for “SAGGSAGGSAGMTFVITDKNGKETTISLEEAAKLLGIPVEEITEEELKEFLEKKVKTIEKISSAGGSAGGSA [r18_403_JUSTAS]” here?
A: The value was 2.6 ± 0.046 kcal/mol.

Q: With “KETVTLEFELEDGSKVRVEVDLETKEVKVEVEKPPAPPPPPVIVLPPGLTEEERERLIKELEKKGIKVVVLS [r1_242_TrROS_Hall]” as the sequence, how does the “folding stability dG unfold” value read?
A: The value was 2.21 ± 0.09 kcal/mol.

Q: Which “folding stability dG unfold” value does the source give for “SSMTTTEKKYTYNDSSISVSTTTLPDGSKLITTPITRKNPDGIDVTETLTTLDKGSGVTPVSPSTSTLNTSA [r9_554_JUSTAS]” here?
A: The value was 0.602 ± 0.035 kcal/mol.

Q: With “SAGGSAGGSAMELVVKEVEYRGPLSLSIEEIAEEIEKKEGIKVIELEEYPDEKVKITIEKVSAGGSAGGSAG [r3_66_JUSTAS]” as the sequence, how does the “folding stability dG unfold” value read?
A: Its value is 0.764 ± 0.12 kcal/mol.

Q: Which “folding stability dG unfold” value does the source give for “SAGKPPPVKIEVNYRRTPDNSYRAEVQIRLPDGKPLFEVTYPFDNPDDPEARERFVRKARNLAKELANSAGG [r19_13_TrROS]” here?
A: Its value is 1.8 ± 0.19 kcal/mol.

Q: Which “folding stability dG unfold” value does the source give for “SAGPWIMIPLPPELREIAKKAGMSPDDVETVEIPLKFGDREVKIEVEVMPDDGWIMVRFKSNGKEFMIPSAG [r5_545_TrROS]” here?
A: The value was 3.22 ± 0.13 kcal/mol.

Q: With “SAGGSAGGSAGGPTIVLKVSPEELKALEKAGVEIEKIEKNEDGELYITLTPEALKKAGFESAGGSAGGSAGG [r7_587_TrROS_Hall]” as the sequence, how does the “folding stability dG unfold” value read?
A: Its value is 2.91 ± 0.057 kcal/mol.

Q: Which “folding stability dG unfold” value does the source give for “SAGGSAGGSAGGGSMTLTEVFVDPETGTRTVRTTTLYTLPNGTLTSTTTTTVEPLPGELSAGGSAGGSAGGS [r10_1258_JUSTAS]” here?
A: The value was 1.87 ± 0.025 kcal/mol.

Q: With “SAGGAITLEYEVETEEEAEKAIEELEKELKEKFGGPVKIEKATIEKTEDPSVPREKYRLKLTIEINKSAGGS [r8_171_JUSTAS]” as the sequence, how does the “folding stability dG unfold” value read?
A: Its value is 1.08 ± 0.11 kcal/mol.

Q: With “SGVSVKVTVEGNTITIEVSADAKIKIEVTFPTKKATYEVEVEPGKPVTFTIPLPKDVPKDAFIDKIDIGGSA [r9_1152_TrMRF]” as the sequence, how does the “folding stability dG unfold” value read?
A: The value was 3.56 ± 0.12 kcal/mol.

Q: With “SAGGSAGGSAGGPPGAVERGYLVVRFRVYRPEPAEPVGELTVYVRVPPPEPEEDGSFRFHSAGGSAGGSAGG [r7_959_TrMRF]” as the sequence, how does the “folding stability dG unfold” value read?
A: The value was 2.39 ± 0.068 kcal/mol.

Q: For “SAGGSAGGSKTIVITIEPNVKTPEQLLELLKKIRELSKPGEKIVIIASPEVLEALKKAGLIEESAGGSAGGS [r12_992_TrROS_Hall]”, which “folding stability dG unfold” value is on record?
A: Its value is 3.7 ± 0.086 kcal/mol.

Q: For “SAGGSIWIPIDSPEDVEEAIDFIQDFLAERGMPPGHDIKKIKVERMENGHYWVEIEFPGRKIYIWVSAGGSA [r2_120_TrROS]”, which “folding stability dG unfold” value is on record?
A: Its value is 4.02 ± 0.054 kcal/mol.

Q: For “SAGKKKKIKIKVKIIVNGKLKEIEIEVDENKTLEEILAEIKKKLPKNAIIIITNENGEKKIIILPKEELSAG [r5_77_TrROS_Hall]”, which “folding stability dG unfold” value is on record?
A: The value was 1.58 ± 0.1 kcal/mol.

Q: Which “folding stability dG unfold” value does the source give for “SAGGDYVKIDFTVMIPTPEQAEEMAEEIKNFFRFMGIKEVKIKVQRNPNNGMYYVTVDIEIRMPPGAVSAGG [r19_92_TrROS]” here?
A: The value was 5.12 ± 0.1 kcal/mol.

Q: With “SAGGSAGGSAGGKTYTLTFKAKIEVSEDDVVVITPPNGKKLVVPKENVKVHPDGTVTVTGSAGGSAGGSAGG [r7_684_TrMRF]” as the sequence, how does the “folding stability dG unfold” value read?
A: Its value is 1.27 ± 0.2 kcal/mol.

Q: Which “folding stability dG unfold” value does the source give for “SAGGSAGGSAGVRIDKDGWTIKWYNPDGEKRTFTVDSPEEAKDFLEENFPPGWRVEIEPPSAGGSAGGSAGG [r11_983_TrROS]” here?
A: Its value is 1.38 ± 0.056 kcal/mol.

Q: With “SAGGSAGGSEKPVLIVKVKVKNPKTKKWEEKTIEVPEGVKTPEEVAKALEKEFGDVVKVEILPSAGGSAGGS [r12_942_TrROS_Hall]” as the sequence, how does the “folding stability dG unfold” value read?
A: Its value is 1.86 ± 0.11 kcal/mol.

Q: Which “folding stability dG unfold” value does the source give for “SAGGDSISDIESVNIYSFNIPSNPYPYIIAELTIPDGRKIIAIYDPSTNTVTIIIEDDGKPRIITLPASAGG [r13_960_TrMRF]” here?
A: Its value is 2.9 ± 0.12 kcal/mol.

Q: With “SAGGTPVVVPATITVPVPFGAPARVTIFTPEDGHVLALIELPDGAVLVATFDPTTGELHVAPYADAASAGGS [r16_735_TrMRF]” as the sequence, how does the “folding stability dG unfold” value read?
A: Its value is 2.78 ± 0.06 kcal/mol.

Q: With “SAGGSSSVGVDSSDPEKTKEAILKAYGTDAEPVFTTDPATGRLTITVPETGDVHTVTAGTRTETAASAGGSA [r2_205_JUSTAS]” as the sequence, how does the “folding stability dG unfold” value read?
A: Its value is 0.224 ± 0.068 kcal/mol.
